{"source": "patent US20140302063A1", "about": "(SECRETARY OF STATE FOR HEALTH, published 2014)", "binders": {"B1": {"name": "R2a-H9 (VHH)", "VHH": "QVQLVESGGGLVQPGGSLRLSCAASTNIASFYTMGWYRQTPGQQRDVVAVIGNGGNTNYADSVKGRFTISRDGAKNTAHLQMNSLKPEDTDVYYCKASGPGGVILWGQGTQVTVSS"}, "B2": {"name": "R1a-C5 (VHH)", "VHH": "QVQLVESGGGLVQPGGSLRLSCAASNDIFSFYTMGWYLQAIGKQREPVAVIGNGGNTNYAESVKGRFTISRDGAKNTAYLQMNSLKPEDTAVYYCMASGPGGLNVWGQGTQVTVSS"}, "B3": {"name": "R2a-G8 (VHH)", "VHH": "QLQLAESGGGLVQAGGSLRLSCAASGSTLNNNAIGWFRQAPGKEREGVSCMNSRDGTTNYADSVKGRFTISRDVAKNTVYLQMNSLKPEDTAVYFCAVKGFAPFLIGCPWGKAEYDYWGQGTQVTVSS"}, "B4": {"name": "R1a-A5 (VHH)", "VHH": "QVQLVESGGGLVQPGGSLRLSCSASGSAVLFSTYPMSWYRQAPGKQRELVAAVTTDGSTSYADYAKGRFTISRDNAKNTVYLQMNSLKPEDTAVYYCNARDGFFNRYDYWGQGTQVTVSS"}, "B5": {"name": "R1a-B6 (VHH)", "VHH": "QVQLVESGGGLVQPGGSLRLSCAASGSFFSRYRMGWYRQAPGEQRELVASIAYDGSTSYADPVKGRFTISRDNANTVHLQMYSLKPDDTAVYYCNLDPPGILYWGQGTQVTVSS"}, "B6": {"name": "R2a-E8 (VHH)", "VHH": "QLQLVESGGGLVQPGGSLRLSCTASGDIFVMYMIDWYRQAPGKQRELVASIDGRGTPMYADSVKGRFTISRDNAKNTVYLQMNSLKPEDTAVYSCHAKSPLVDNEYWGQGTQVTVSS"}, "B7": {"name": "R2a-F9 (VHH)", "VHH": "QVQLVESGGGLVQPGGSLRLSCSASGSISSIVTMGWYRQAPGKERELVAVIGNYGNTNYADSVKGRFTVSRDNAKNTVYLQMNSLNVEDTAMYVCKFSSTVAPHEYWGQGTQVTVSS"}, "B8": {"name": "R2a-G9 (VHH)", "VHH": "QVQLVESGGGLVQPGGSLRLSCAASDNIFSFYTMGWYRQSPGKERELVAVIGNGGNTNYADSVKGRFTISRDNGKNKAHLQMNSLKPEDTAVYYCKASGPGGVEVWGQGTQVTVSS"}, "B9": {"name": "R1a-G5 (VHH)", "VHH": "QLQLVESGGGLVQPGGSLRLSCAASGSISRIVTMGWYRQASGKERELVAVIGNYGNTNYADSVKGRFTVSRDNAKDTAYLQMNGLNVEDTAIYYCKTSTTTPPYEYWGQGTQVTVSS"}, "B10": {"name": "R1a-F4 (VHH)", "VHH": "B9 VHH with L2V, A40G, S41P, G84N, I92M, T97C, Y104H, Y106F"}, "B11": {"name": "R1a-F5 (VHH)", "VHH": "QLQLVESGGGLVQVGGSLRLSCAASGFPFDGYAIAWFRQAPGKEREGVSCRASDGNTYYAESLKGRLTMSTDNAKNTVYLQMNSLKPEDTAVYYCAAASWVASLWSPSEYDYWGQGTQVTVSS"}, "B12": {"name": "R1a-E6 (VHH)", "VHH": "QVQLVESGGGLVQPGGSLRLSCAASGFTLGAYAIAWFRQAPGKEREGVSCISPSDSFTEYGDSVKGRFTVSRDNAKNTVYLQMNSLQPEDTAVYYCAADPVCTAGWYRPSRFDLWGQGTQVTVSS"}, "B13": {"name": "R1a-G6 (VHH)", "VHH": "QVQLVESGGGLVQSGGSLRLSCAASGSMSRIITMGWYRQAPGMERELVAVIGNNDNTVYGDSVQGRFTVSRDNAKNTAYLQMNSLNAEDTAMYYCKISTLTPPHEYWGQGTQVTVSS"}, "B14": {"name": "R2b-E8 (VHH)", "VHH": "QVQLVESGGGLVQPGGSLRLSCAASGSFFSRYRMGWYRQAPGEQRELVAGITYDDSTNYAGSVKGRFTISRDNAKNTVHLQMNSLKPEDTAVYYCNLNPPGNLYWGQGTQVTVSS"}, "B15": {"name": "R2b-D9 (VHH)", "VHH": "QVQLVESGGGLVQPGGSLRLSCLASGSAFSLYTMGWYRQAPGNQRELVAAITSGESTNYADSVKGRFTISRDNAKNTVYLQMNSLKPEDTAVYYCNADPLSTGWGQYSYWGQGTQVTVSS"}, "B16": {"name": "R1a-E5 (VHH)", "VHH": "QLQLVESGGGLVQPGGSLRLSCTASGFSLDNYAIGWFRRAPGEEREGVSFITSTSAVTKYADSVKGRFTISRDNAKNTVYLQMTSLKPEDTAVYYCAGTRWVPTMKADEYNYWGQGTQVTVSS"}, "B17": {"name": "R2a-B9 (VHH)", "VHH": "QVQLVESGGGLVQPGGSLRLSCAASGSAFSINAMGWYRQAPGEEREFVAAITAGGNTYYADSAKARFTISRDNAKNMLYLQMNSLKPEDTAMYYCAATKAFGIATITADYELWGQGTQVTVSS"}, "B18": {"name": "R1a-H6 (VHH)", "VHH": "QVQLVESGGGLVQAGDSLRLSCTASVLTFSLYRVGWFRQAPGKEREFVAAIDWGDGPTTYADSVKGRFTISRDNAERTAYLQINSLKPEDTAVYYCGAGNTGSSDRSSSYVHWGQGTQVTVSS"}, "B19": {"name": "R2b-D8 (VHH)", "VHH": "QVQLVESGGGLVQPGGSLRLSCAASGFTFSWYDVGWYRRAPGKERELVADIASTRGTTNYADSVKGRFTISRDNAKNSVYLQMNSLKPEDTAVYYCNTRRDWRDYWGQGIQVTVSS"}}, "note": "Substitutions are numbered along the chain they refer to.", "data": [{"target": "T1, recombinant H2 A/Japan/305/1957 (H2N2) (Influenza A virus A/Japan/305/1957 …, UniProt P03451 16-525)", "experiment": "SPR, single cycle kinetics, HA immobilised", "units": {"Kd": "nM"}, "values": [{"binder": "B1", "Kd": 40}, {"binder": "B2", "Kd": 67}, {"binder": "B3", "Kd": 39}, {"binder": "B4", "Kd": 186}, {"binder": "B5", "Kd": 43}, {"binder": "B6", "Kd": 34}]}, {"target": "Recombinant haemagglutinin HA1 domain (18-344) (A/California/06/09) H1N1 (Influenza A virus A/California/06/09 (H1N1))", "experiment": "SPR, single cycle kinetics, HA1 domain immobilised", "units": {"Kd": "nM"}, "values": [{"binder": "B7", "Kd": 79}, {"binder": "B8", "Kd": 69}, {"binder": "B1", "Kd": 4.7}, {"binder": "B9", "Kd": 26}, {"binder": "B10", "Kd": 4.7}, {"binder": "B2", "Kd": 734}, {"binder": "B11", "Kd": 6.1}, {"binder": "B12", "Kd": 36}, {"binder": "B13", "Kd": 4.6}, {"binder": "B3", "Kd": 7.7}]}, {"target": "recombinant H9 A/HongKong/1073/99 (H9N2) (Influenza A virus A/HongKong/1073/99 (H9N2))", "experiment": "SPR, single cycle kinetics, HA immobilised", "units": {"Kd": "nM"}, "values": [{"binder": "B2", "Kd": 22}, {"binder": "B14", "Kd": 87}, {"binder": "B15", "Kd": 59}, {"binder": "B5", "Kd": 7.6}]}, {"target": "full length recombinant H1 residues 18-530 derived from A/California/06/09 (Influenza A virus A/California/06/09 (H1N1))", "experiment": "SPR, single cycle kinetics, HA immobilised", "units": {"Kd": "nM"}, "values": [{"binder": "B7", "Kd": 60}, {"binder": "B8", "Kd": 62}, {"binder": "B1", "Kd": 2.8}, {"binder": "B9", "Kd": 24}, {"binder": "B10", "Kd": 7.3}, {"binder": "B2", "Kd": 1.9}, {"binder": "B11", "Kd": 9.2}, {"binder": "B12", "Kd": 22.8}, {"binder": "B13", "Kd": 4.4}, {"binder": "B3", "Kd": 3.1}, {"binder": "B14", "Kd": 8.2}, {"binder": "B15", "Kd": 0.4}, {"binder": "B4", "Kd": 3.3}, {"binder": "B16", "Kd": 0.6}, {"binder": "B5", "Kd": 0.7}, {"binder": "B6", "Kd": 0.8}, {"binder": "B17", "Kd": 0.2}]}, {"target": "recombinant H5 A/Vietnam/1203/04 (H5N1) (Influenza A virus A/Vietnam/1203/04 (H5N1))", "experiment": "SPR, single cycle kinetics, HA immobilised", "units": {"Kd": "nM"}, "values": [{"binder": "B2", "Kd": 2.7}, {"binder": "B3", "Kd": 9}, {"binder": "B14", "Kd": 3.6}, {"binder": "B15", "Kd": 1.6}, {"binder": "B4", "Kd": 0.7}, {"binder": "B5", "Kd": 1.7}, {"binder": "B18", "Kd": 241}]}, {"target": "T1, recombinant H2 A/Japan/305/1957 (H2N2)", "experiment": "SPR, single cycle kinetics", "values": [{"binder": "B7", "binding result": "no binding (tested: 100 nM)"}, {"binder": "B8", "binding result": "no binding (tested: 100 nM)"}, {"binder": "B9", "binding result": "no binding (tested: 100 nM)"}, {"binder": "B10", "binding result": "no binding (tested: 100 nM)"}, {"binder": "B11", "binding result": "no binding (tested: 100 nM)"}, {"binder": "B12", "binding result": "no binding (tested: 100 nM)"}, {"binder": "B13", "binding result": "no binding (tested: 100 nM)"}, {"binder": "B14", "binding result": "no binding (tested: 100 nM)"}, {"binder": "B15", "binding result": "no binding (tested: 100 nM)"}, {"binder": "B16", "binding result": "no binding (tested: 100 nM)"}, {"binder": "B18", "binding result": "no binding (tested: 100 nM)"}, {"binder": "B17", "binding result": "no binding (tested: 100 nM)"}, {"binder": "B19", "binding result": "no binding (tested: 100 nM)"}]}]}
